These results are taken from US20190331690A1, “BIOTHIOL DETECTION COMPOSITION COMPRISING REDOX REGULATION PROTENIN” (INDUSTRY-UNIVERSITY COOPERATION FOUNDATION HANYANG …, priority 2016, published 2019).

For data set [1], the target named is T1, OhrR (Bacillus subtilis, UniProt O34777).
T1 construct: made in house
Briefly: OhrR-biothiol binding by MALDI-TOF MS. Details: species or system B. subtilis. To be noted: 300 nM OhrR, 3 μM CHP. On the procedure:
It was confirmed whether it is possible to quantitatively analyze the binding of OhrR and a biothiol using a Matrix-Assisted Laser Desorption Ionization-Time-of-Flight Mass Spectrometry (MALDI-TOF mass spectrometer; MALDI-TOF MS).
1 mL of a 300 nM OhrR-containing buffer (20 mM Tris (pH 8.0), 100 mM NaCl, 5% Glycerol) was mixed with a biothiol (Cys, Hcy or GSH) at each concentration (0, 1, 2, 4, 8, 16, 32, or 64 μM). After 3 μM CHP reacted with each resulting mixture for 2 minutes, 110 μL of 100% TCA was treated to stop the oxidation reaction, and precipitate OhrR. To alkylate the precipitated OhrR, 50 mM iodoacetamide was treated, thereby blocking a cysteine residue of the reduced OhrR. The protein was isolated by sodium dodecyl sulphate-polyacrylamide gel electrophoresis (SDS-PAGE), and then a band corresponding to OhrR was cut out and treated with trypsin (37° C., 12 hours or more), followed by extraction from the gel. 0.5 μL of the extracted peptides were treated with 0.5 μL of a-cyano-4-hydroxycinnamic acid (CHCA) (in 50% acetonitrile, 1% TFA) and dehydrated, and then subjected to MALDI-TOF analysis. The MADI-TOF analysis was performed using a 4700 Proteomics Analyzer instrument (Applied Biosystems).

Data set [2] concerns the target T1, OhrR. The data set can be described thus: Biochip detection of LMW biothiols (His6-tag OhrR, HisProbe-HRP, TMB absorbance at 450 nm). In kind it is biochemical. The conditions noted are these: same concentration (final 100 μM biothiol), CHP final 5 μM, 10 minutes. The procedure: A biochip method is for […] using His6-tag of OhrR, rather than by labeling with fluorescence or a DNAzyme, according to a principle that OhrR is detached from dsDNA attached to the surface of a biochip in the presence of LMW biothiols, thereby reducing a detection signal.
150 μL of 5 mg/mL NeutrAvidin® (Thermo Scientific, USA) diluted with a coating buffer (100 mM Na2HPO4, 50 mM citric acid) was put into each well of a transparent 96-well plate, and reacted at 37° C. for 4 to 5 hours, and then an unbound residue was washed with TBS four times. After washing, 300 μL of a Seablock blocking buffer (Thermo Scientific, USA) was put into each well and shaken at room temperature for 2 hours for blocking (process of coating NeutrAvidin-unbound surface to prevent non-specific reaction), followed by re-washing with TBS four times. […]
(§1) 50 μL of one of CHP (final 5 μM) and a LMW biothiol (final 100 μM for each of L-cysteine, homocysteine and GSH) was simultaneously put into each well using the biochip to which biotin-dsDNA and His6-tag OhrR were fixed to the NeutrAvidin-coated plate, reacted at room temperature for 10 minutes, and washed with TBS for 4 times. […] After 5 minutes, 2M sulfuric acid was added to stop the reaction, and absorbance was measured at 450 nm. […]

A further data set addresses T2, His6-OhrR (Bacillus subtilis, UniProt O34777 SEQ:1-147).
T2 sequence: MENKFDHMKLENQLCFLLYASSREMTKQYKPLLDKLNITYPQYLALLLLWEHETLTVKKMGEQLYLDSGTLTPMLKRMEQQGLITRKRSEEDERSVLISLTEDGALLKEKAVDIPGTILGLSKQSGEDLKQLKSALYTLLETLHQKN
Briefly: plate assay on NeutrAvidin, 5 uM OhrR, TBS, HisProbe-HRP readout; signal reduced by CHP plus biothiol. The conditions noted are these: tags: His6; chain copies: 2; label: biotin. On the procedure: 150 μL of 5 mg/mL NeutrAvidin® (Thermo Scientific, USA) diluted with a coating buffer (100 mM Na₂HPO₄, 50 mM citric acid) was put into each well of a transparent 96-well plate, and reacted at 37° C. for 4 to 5 hours, and then an unbound residue was washed with TBS four times. After washing, 300 μL of a Seablock blocking buffer (Thermo Scientific, USA) was put into each well and shaken at room temperature for 2 hours for blocking (process of coating NeutrAvidin-unbound surface to prevent non-specific reaction), followed by re-washing with TBS four times. 100 μL of a biotin-DNA solution diluted with a TBS buffer to 1 μM was put into each well of the blocking-completed microplate, and reacted at room temperature for 1 hour, followed by washing with TBS four times. […]
as §1

The target of data set [3] is T3, OhrR (organic hydroperoxide regulator) (Bacillus subtilis, UniProt O34777 SEQ:1-147).
T3 sequence: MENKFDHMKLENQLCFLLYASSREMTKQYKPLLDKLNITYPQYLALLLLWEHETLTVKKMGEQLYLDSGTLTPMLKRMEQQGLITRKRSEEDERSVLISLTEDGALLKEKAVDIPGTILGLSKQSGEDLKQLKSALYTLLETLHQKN
The data set can be described thus: BLI; 50 uM OhrR, TBS; binding thickness about 4.3 nm, falls to about 1 nm with CHP plus biothiol; CHP or biothiol alone still binds. The conditions noted are these: chain copies: 2; label: biotin.

The target in data set [4] is T3, OhrR (organic hydroperoxide regulator). The data set can be described thus: FP; 50 nM DNA, 300 nM OhrR; 20 mM Tris pH 8.0, 150 mM NaCl, 5% glycerol; dissociates on CHP plus Cys/Hcy/GSH. To be noted: chain copies: 2; label: 6-FAM. On the procedure:
The binding activity between OhrR and fluorescence (6FAM, 6-carboxyfluorescein)-labeled OhrR-binding DNA was measured every 10 seconds using an LS55 luminescence spectrometer (PerkinElmer) after dissolution in 3 mL of a buffer at a concentration under the experimental conditions. When OhrR binds to DNA, an anisotropy value (Anis) increases. However, when OhrR is dissociated from DNA, an anisotropy value decreases. In each experiment, three representative biothiols such as cysteine (Cys), homocysteine (Hcy) and glutathione (GSH) were treated at various concentrations (0, 1, 2, 4, 8, 16, 32, and 64 μM). While OhrR was bound to DNA in the presence of only a free biothiol, a real-time dissociation rate of OhrR from DNA was measured by treating a type of representative organic hydroperoxide, that is, cumene hydroperoxide (CHP) (treated at 300 sec).

Data set [5] addresses T4, FLAG-OhrR (Bacillus subtilis, UniProt O34777 SEQ:1-147).
T4 sequence: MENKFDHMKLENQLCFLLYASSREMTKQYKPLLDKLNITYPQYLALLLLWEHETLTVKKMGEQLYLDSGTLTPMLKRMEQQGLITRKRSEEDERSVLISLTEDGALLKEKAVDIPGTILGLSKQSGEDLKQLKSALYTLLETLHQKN
The data set can be described thus: pulldown; anti-FLAG beads, 2 uM OhrR, 100 nM DNA, TBS; released by CHP plus biothiol. To be noted: tags: FLAG (DYKDDDDK), expressed in E. coli; chain copies: 2; label: 6-FAM. The procedure:
First, 30 μL of M2 FLAG affinity beads (Sigma, A2220) were added to respective tubes corresponding to the number of samples, and FLAG-tagged OhrR (2 μM) was bound thereto for 1 hour to reach the total volume of 200 μL (when OhrR is bound to the His6 tag, NTA-Beads can also be used). To remove unbound OhrR, after spin-down, a supernatant was removed, fluorophore or DNAzyme-bound OhrR-binding dsDNA (100 nM, SEQ ID NOs: 1 and 2) was bound to the OhrR-bound beads for 30 minutes. […] Afterward, 200 μL of a supernatant obtained by spin-down was transferred to a 96-well plate, and fluorescence or chemiluminescence was measured. […]
OhrR-binding dsDNA was bound with a fluorescent factor FAM, and 200 μL of the final supernatant was transferred to a 96 well plate, followed by fluorescence measurement using a multi plate reader (Variokan, Thermo Scientific). In the fluorescence measurement, a fluorescent signal value at a 525 nm emission wavelength obtained at an excitation wavelength of 480 nm was obtained, and a fluorescence value of each well was corrected using a well only containing a buffer without a fluorescent factor as a reference value, followed by comparing these values.

The target of data set [6] is T4, FLAG-OhrR. Briefly: pulldown; anti-FLAG beads, 5 uM OhrR, 100 nM DNA, TBS; released by CHP plus cysteine, chemiluminescence readout. The conditions noted are these: tags: FLAG (DYKDDDDK), expressed in E. coli; chain copies: 2; label: 5' biotin on complementary strand; 5' single-stranded peroxidase DNAzyme plus T9 linker overhang. On the procedure:
After unbound dsDNA was removed by spin-down, 160 μL of a buffer (Tris Buffered Saline, TBS)->20 μL of LMW biothiols (by concentration)->20 μL of CHP (500 μM) were sequentially added to each tube, followed by shaking for 5 minutes. Afterward, 200 μL of a supernatant obtained by spin-down was transferred to a 96-well plate, and fluorescence or chemiluminescence was measured. The reducing agent (DTT)-untreated sample may be used for measuring free LMW biothiols, and the reducing agent-treated sample may be used for measuring total LMW biothiols [FIG. 9].
200 μL of the DNAzyme (5′-GG GTT GGG CGG GAT GGG-3′ [SEQ ID NO: 6], synthesized by IDT)-bound OhrR-binding dsDNA was recovered from a supernatant, and 20 μL of a suspension of NeutrAvidin®-coated beads (Thermo Scientific, USA) was added thereto, followed by shaking at room temperature for 30 minutes. Afterward, washing was performed with a TBS (20 mM Tris, 150 mM NaCl, pH 7.4) buffer four times. To induce DNAzyme activity, 180 μL of a TBS buffer was mixed with 20 μL of 1 μM Hemin (Calbiochem, USA) (in TBS) solution to reach the final volume of 200 μL, the beads were precipitated, and then the resulting solution was left at room temperature under a dark condition for 15 minutes or more. […]

As for `N[C@@H](CS)C(=O)O` [Cys, cysteine], on OhrR [1], the “detection signal level among the measured LMW biothiols” value is listed as “highest detection signal level”. Besides, on OhrR [2], the “absorbance signal reducing effect compared with homocysteine or GSH” value was “higher absorbance signal reducing effect”.

B1: OhrR operator dsDNA, biotin (dsDNA)
DNA 1: TACAATTAAATTGTATACAATTAAATTGTA
DNA 2: TACAATTTAATTGTATACAATTTAATTGTA
Turning to B1, the binding result (with His6-OhrR; in data set [3]) was “binds” each time.

B2: OhrR operator dsDNA, 6FAM (dsDNA)
DNA 1: TACAATTAAATTGTATACAATTAAATTGTA
DNA 2: TACAATTTAATTGTATACAATTTAATTGTA
Regarding B2, the binding result (in data set [4]; with FLAG-OhrR [5]) was “binds” throughout.

B3: DNAzyme-linked OhrR operator dsDNA probe (dsDNA)
DNA 1: GGGTTGGGCGGGATGGGTTTTTTTTTTACAATTAAATTGTATACAATTAAATTGTA
DNA 2: TACAATTTAATTGTATACAATTTAATTGTA
With B3, the binding result in the data set with FLAG-OhrR [6] is “binds”.
